{
  "source": "paper PMC4777857",
  "key": {"[1]": {"molecular_target": "monomeric heterotrimeric collagen VI molecule composed of one α1 chain, one α2 chain and one α4 chain (mouse (endogenous in tissue)) (UniProt Q04857)", "assay": "immunoelectron microscopy after negative staining; native collagen VI tetramers and microfibrils extracted from E14.5 mouse lungs by collagenase digestion; double labelling for 30 min at 37 °C with colloidal gold-labeled antibodies specific for the N-terminal regions of the long α chains"}, "[2]": {"molecular_target": "C-terminal globular region of the collagen VI α1 chain", "assay": "SAXS; C-terminal regions in solution (α1, 4.3 mg/ml; α2, 4 mg/ml; α4, 3.5 mg/ml; α6, 3.5 mg/ml) after Superdex200 in 10 mM phosphate buffer, 400 mM NaCl, pH 7.4; EMBL-P12 beamline, PETRAIII; molecular weight from the volume of correlation"}, "[3]": {"molecular_target": "C-terminal globular region of the collagen VI α2 chain", "assay": "SAXS; C-terminal regions in solution (α1, 4.3 mg/ml; α2, 4 mg/ml; α4, 3.5 mg/ml; α6, 3.5 mg/ml) after Superdex200 in 10 mM phosphate buffer, 400 mM NaCl, pH 7.4; EMBL-P12 beamline, PETRAIII; molecular weight from the volume of correlation"}, "[4]": {"molecular_target": "monomeric heterotrimeric collagen VI molecule composed of one α1 chain, one α2 chain and one α6 chain (mouse (endogenous in tissue)) (UniProt Q04857)", "assay": "immunoelectron microscopy after negative staining; native collagen VI tetramers and microfibrils extracted from E14.5 mouse lungs by collagenase digestion; double labelling for 30 min at 37 °C with colloidal gold-labeled antibodies specific for the N-terminal regions of the long α chains"}, "[5]": {"molecular_target": "monomeric heterotrimeric collagen VI molecule composed of one α1 chain, one α2 chain and one α5 chain (mouse (endogenous in E14.5 lung)) (UniProt Q04857)", "assay": "immunoelectron microscopy after negative staining; native collagen VI tetramers and microfibrils extracted from E14.5 mouse lungs by collagenase digestion; double labelling for 30 min at 37 °C with colloidal gold-labeled antibodies specific for the N-terminal regions of the long α chains"}, "[6]": {"molecular_target": "C-terminal globular region of the collagen VI α4 chain", "assay": "SAXS; C-terminal regions in solution (α1, 4.3 mg/ml; α2, 4 mg/ml; α4, 3.5 mg/ml; α6, 3.5 mg/ml) after Superdex200 in 10 mM phosphate buffer, 400 mM NaCl, pH 7.4; EMBL-P12 beamline, PETRAIII; molecular weight from the volume of correlation"}, "[7]": {"molecular_target": "monomeric heterotrimeric collagen VI molecule composed of one α1 chain, one α2 chain and one α3 chain (mouse (endogenous in tissue)) (UniProt Q04857)", "assay": "immunoelectron microscopy after negative staining; native collagen VI tetramers and microfibrils extracted from E14.5 mouse lungs by collagenase digestion; double labelling for 30 min at 37 °C with colloidal gold-labeled antibodies specific for the N-terminal regions of the long α chains"}},
  "data": [
    {"substance": "monomeric heterotrimeric collagen VI molecule composed of one α1 chain, one α2 chain and one α4 chain, Q04857 20-1025; Q02788 26-1034; A2AX52 23-2309", "values": [
      {"measurement": "stoichiometry N", "setting": "[1]", "value": 4}
    ]},
    {"substance": "C-terminal globular region of the collagen VI α1 chain (domain or fragment)", "values": [
      {"measurement": "stoichiometry N", "setting": "[2]", "value": 2}
    ]},
    {"substance": "C-terminal globular region of the collagen VI α2 chain (domain or fragment)", "values": [
      {"measurement": "stoichiometry N", "setting": "[3]", "value": 2}
    ]},
    {"substance": "monomeric heterotrimeric collagen VI molecule composed of one α1 chain, one α2 chain and one α6 chain, Q04857 20-1025; Q02788 26-1034; Q8C6K9 19-2265", "values": [
      {"measurement": "stoichiometry N", "setting": "[4]", "value": 4}
    ]},
    {"substance": "monomeric heterotrimeric collagen VI molecule composed of one α1 chain, one α2 chain and one α5 chain, Q04857 20-1025; Q02788 26-1034; A6H584 19-2640", "values": [
      {"measurement": "stoichiometry N", "setting": "[5]", "value": 4}
    ]},
    {"substance": "C-terminal globular region of the collagen VI α4 chain (domain or fragment)", "values": [
      {"measurement": "stoichiometry N", "setting": "[6]", "value": 2}
    ]},
    {"substance": "monomeric heterotrimeric collagen VI molecule composed of one α1 chain, one α2 chain and one α3 chain (from UniProt Q04857 20-1025; Q02788 26-1034) (complex)", "values": [
      {"measurement": "stoichiometry N", "setting": "[7]", "value": 4}
    ]}
  ]
}
